Measurements: US6723697B2, “IL-16 antagonists” (Research Corporation Technologies, Inc., priority 1999, dated 2004)
“Also recorded” adds a separate entry of the source. Values belong to the molecule of their own block, whether it stands above or below them.

Key:
Format in all cases: cell-based
murine rIL-16 [1] = biological target: T1, murine rIL-16 (Mus musculus, UniProt O54824); test: murine rIL-16-stimulated murine splenocyte migration, modified Boyden chamber; conditions: for IL-16-inhibitory activity (block of murine rIL-16-stimulated murine splenocyte migration): peptide concentration not given
T1 construct: polyhistidine fusion protein containing the 119 C-terminal residues encoded by the previously reported murine cDNA; polyhistidine (cleaved yes); made in house; host or cells: Escherichia coli strain HMS 174, vector pET16b
T1 sequence (O54824 1204-1322): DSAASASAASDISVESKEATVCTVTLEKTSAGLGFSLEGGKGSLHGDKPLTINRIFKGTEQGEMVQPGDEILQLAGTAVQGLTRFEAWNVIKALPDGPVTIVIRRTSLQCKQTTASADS
Method: (§1) Cell migration was assessed using a modified Boyden chamber. […] Cell migration is expressed as the mean % control migration.
(§2) Results from multiple experiments were analyzed using Student's t test for paired variables, and Tukey's test for multiple variables. A P value<0.05 was considered significant.
Peptide B (aa 341-352) includes the sequence WQCLLS (residues 344-349, SEQ ID NO:4) which is 100% conserved in all the species examined. Peptide A (aa 327-338) and peptide C (aa 351-362) correspond to the N-terminal and C-terminal flanks of peptide B, respectively. A random scrambled 12-residue peptide (LSKQKMVSREGT) designated peptide D (SEQ ID NO:20) was used a negative control for nonspecific effects of peptide administration on splenocyte motility. Criteria for the design of peptide D included overall hydrophilicity, neutral charge and no cysteine residues (to prevent possible dimer formation).
Murine spleens were harvested from healthy 8-week male BALB/c mice (Jackson Laboratory). Splenocytes were isolated by grinding spleens between fiysted slides in M199 culture medium (M. A. Bioproducts), supplemented with 0.4% bovine serum albumin, 22 mM HEPES buffer, 100 with U/ml of penicillin, 100 μg/ml streptomycin (M199-HPS). Cells were washed and erytbrocytes were lysed in Gey's solution. Splenocytes were washed twice in M199, and resuspended to a final concentration of 2×10^6 cells/ml in RPMI1640 medium (BioWhittaker) supplemented with 10% FBS, 100 U/ml of penicillin and 100 μg/ml of streptomycin. By flow cytometry, 25% of the isolated splenocytes within the lymphocyte-cloud were CD4^+.
Recombinant murine IL-16 was produced in Escherichia coli (strain HMS 174; Novagen) as a polyhistidine fusion protein containing the 119 C-terminal residues encoded by the previously reported murine cDNA (Keane et al., (1998) J. Immunol. 160: 5945-5954), using the bacterial expression vector pET16b (Novagen). The recombinant product corresponds to the secreted form of natural murine IL-16 following cleavage by caspase-3 (Zhang et al. (1998) J. Biol. Chem. 273:1144-1149). The rIL-16 was purified by metal chelation chromatography, and the polyhistidine tag was cleaved with factor Xa (New England Biolabs).

rIL-16 = biological target: T2, rIL-16 (Mus musculus, UniProt O54824); test: IL-2R (CD25) induction on rIL-16-stimulated murine splenocytes, flow cytometry
T2 construct: polyhistidine fusion protein containing the 119 C-terminal residues encoded by the previously reported murine cDNA; polyhistidine (cleaved yes); made in house; host or cells: Escherichia coli strain HMS 174, vector pET16b
T2 sequence (O54824 1204-1322): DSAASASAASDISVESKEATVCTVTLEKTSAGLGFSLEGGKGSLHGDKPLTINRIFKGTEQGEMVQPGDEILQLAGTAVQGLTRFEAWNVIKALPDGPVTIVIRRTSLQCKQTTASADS
Method: Induction of IL-2R (CD25) on rIL-16-stimulated murine splenocytes was detected by staining with FITC-conjugated anti-mouse IL-2R Ab (PharMingen). Cells were fixed with 10% formalin and stored at 4° C. in the dark before analysis with a Becton Dickinson FACScan 440 flow cytometer. The % IL-2R^+ cells was determined by subtracting the % isotype control positive from the total % positive events.
Peptides A (SEQ ID NO:15) and C (SEQ ID NO:19) were inhibitory at 10^−7 M, but not 10^−6 M. The negative control peptide D (SEQ ID NO:20) (10^−6 M) had no effect on rIL-16-stimulated IL-2R expression.
Murine splenocytes were incubated in control buffer, rIL-16 alone, or rIL-16 plus the indicated peptide. IL-2R expression was determined by flow cytometry using FITC-conjugated anti-IL-2R antibody. The % IL-2R^+ was determined by subtracting the FITC-conjugated isotype control antibody binding from the FITC-conjugated anti-IL-2R antibody binding. Isotype control antibody binding ranged from 1% to 4%.

murine rIL-16 [2] = biological target: T1, murine rIL-16; test: IL-16-stimulated T-lymphocyte migration, human CD4 D4 point mutants; conditions: human CD4 D4 wild type or point mutant, rIL-16 10^-9 M
Method: Point mutations at Leu 348 and Leu 349 in human CD4 were prepared as follows.
Initially 100 ng of wild type human CD4 cDNA (Richard Axel, Columbia University, N.Y.) contained within the mammalian expression vector pcDNA3.1(−) (Invitrogen, Carlsbad, Calif.) was subjected to the polymerase chain reaction (PCR) in the presence of 125 ng of each set of primer pairs. PCR conditions were as follows:
The time for the elongation step varied according to the relationship of 2 minutes per kilobase of plasmid DNA length. The product was then subjected to restriction digestion with the enzyme Dpn for 1 h. at 37° C. Dpn is specific for methylated nucleotides and therefore will only cut the original wide type CD4-plasmid DNA. The transformation reaction required the addition of 1 μl of the digest to 50 μl of Epicurean Blue Eschericia coli which was incubated on ice for 30 min. and finally heat shocked 42° C., 45 sec to seal the supercompent bacteria. The resultant bacteria culture was selected on ampicillin plates and sequenced to confirm mutagenesis.
as §1, §2
(FIGS. 10A and 10B). […] (FIGS. 11A and 11B).

- synergistic activity with peptide B (murine rIL-16 [1]; 6-residue peptide 10^-8 M combined with peptide B, data not shown): synergistic activity
Molecule: VVQVVA (OTHER INFORMATION: Description of Artificial Sequence:IL-16 antagonist peptide) [aa 333-338 of mouse CD4 D4, C-terminal half of peptide A]
- inhibition of rIL-16-induced splenocyte migration (murine rIL-16 [1]; peptide 10^-6 M, rIL-16 10^-9 M): inhibited rIL16-induced splenocyte migration

- block of IL-16-stimulated splenocyte motility in combination with peptide B (murine rIL-16 [1]; peptide 0.5×10^-6 M to 0.5×10^-9 M (any concentration) plus peptide B fixed 0.5×10^-8 M): did not block IL-16
Molecule: VVQKVA (OTHER INFORMATION: Description of Artificial Sequence:IL-16 antagonist peptide) [aa 336 V:K substituted]

- IL-16-inhibitory activity (block of murine rIL-16-stimulated murine splenocyte migration) (murine rIL-16 [1]; rIL-16 10^-9 M): failed to block IL-16
Molecule: WQCELS (OTHER INFORMATION: Description of Artificial Sequence:IL-16 antagonist peptide) [aa 347 L:E substituted]

- synergy when combined with peptide B (murine rIL-16 [1]; concentration not given, data not shown): no synergy
- IL-16-inhibitory activity (block of murine rIL-16-stimulated murine splenocyte migration) (murine rIL-16 [1]; rIL-16 10^-9 M): no inhibitory activity
Molecule: VSEEQK (OTHER INFORMATION: Description of Artificial Sequence:IL-16 antagonist peptide) [N-terminal half of peptide A]

- % IL-2R+ CELLS (rIL-16; IL-16 + negative control peptide, 10^-6 M): 37%
- inhibition of IL-16-stimulated induction of IL-2R (rIL-16; peptide 10^-6 M): no effect
Molecule: LSKQKMVSREGT (OTHER INFORMATION: Description of Artificial Sequence:IL-16 antagonist peptide) [peptide D, random scrambled 12-residue peptide used as negative control, reference compound]

- inhibition of IL-16-stimulated T-lymphocyte migration (murine rIL-16 [2]): maintained partial ability to inhibit
- inhibition of IL-16-stimulated T-lymphocyte migration (murine rIL-16 [2]; listed as Leucine 348 was conservatively substituted with Isoleucine): Partial inhibition
B3: … (peptide)
chain: NLTCEVWGPTSPKLMLSLKLENKEAKVSKREKAVWVLNPEAGMWQCILSDSGQVLLESNIKVLPTWSTPVQPM
modifications: OTHER INFORMATION: Description of Artificial Sequence:IL-16 antagonist peptide
notes: human CD4 D4 with Isoleucine substituted at position 348

- inhibition of IL-16-stimulated T-lymphocyte migration (murine rIL-16 [2]): lost the ability to inhibit
- inhibition of IL-16-stimulated T-lymphocyte migration (murine rIL-16 [2]; listed as human CD4 (L349→S)): complete loss in inhibition
B4: NLTCEVWGPTSPKLMLSLKLENKEAKVSKREKAVWVLNPEAGMWQCLSSDSGQVLLESNIKVLPTWSTPVQPM (peptide)
chain: NLTCEVWGPTSPKLMLSLKLENKEAKVSKREKAVWVLNPEAGMWQCLSSDSGQVLLESNIKVLPTWSTPVQPM
modifications: OTHER INFORMATION: Description of Artificial Sequence:IL-16 antagonist peptide
notes: human CD4 D4 with leucine 349 to serine

- inhibition of IL-16-stimulated T-lymphocyte migration (murine rIL-16 [2]): lost the ability to inhibit
- inhibition of IL-16-stimulated T-lymphocyte migration (murine rIL-16 [2]; listed as human CD4 (L348→S)): complete loss in inhibition
B5: NLTCEVWGPTSPKLMLSLKLENKEAKVSKREKAVWVLNPEAGMWQCSLSDSGQVLLESNIKVLPTWSTPVQPM (peptide)
chain: NLTCEVWGPTSPKLMLSLKLENKEAKVSKREKAVWVLNPEAGMWQCSLSDSGQVLLESNIKVLPTWSTPVQPM
modifications: OTHER INFORMATION: Description of Artificial Sequence:IL-16 antagonist peptide
notes: human CD4 D4 with leucine 348 to serine

Further lines, the molecule ahead of its results:

Molecule: WQALLS (OTHER INFORMATION: Description of Artificial Sequence:IL-16 antagonist peptide) [aa 346 C:A substituted]
- IL-16-inhibitory activity (block of murine rIL-16-stimulated murine splenocyte migration) (murine rIL-16 [1]; rIL-16 10^-9 M): equally as effective as the native WQCLLS

Molecule: VAPETG (OTHER INFORMATION: Description of Artificial Sequence:IL-16 antagonist peptide) [aa 337-342, bridges peptide A and peptide B]
- IL-16-inhibitory activity (block of murine rIL-16-stimulated murine splenocyte migration) (murine rIL-16 [1]; rIL-16 10^-9 M): failure; also recorded: lacked inhibitory activity

Molecule: WACLLS (OTHER INFORMATION: Description of Artificial Sequence:IL-16 antagonist peptide) [aa 345 Q:A substituted]
- IL-16-inhibitory activity (block of murine rIL-16-stimulated murine splenocyte migration) (murine rIL-16 [1]; rIL-16 10^-9 M): failed to block IL-16

Molecule: VKQVVA (OTHER INFORMATION: Description of Artificial Sequence:IL-16 antagonist peptide) [aa 334 V:K substituted]
- reduction of IL-16-stimulated splenocyte migration in combination with peptide B (murine rIL-16 [1]; peptide 10^-6 M plus peptide B fixed 0.5×10^-8 M): reduced IL-16-stimulated splenocyte migration
- reduction of IL-16-stimulated splenocyte migration in combination with peptide B (murine rIL-16 [1]; peptide 10^-7 M plus peptide B fixed 0.5×10^-8 M): reduced IL-16-stimulated splenocyte migration

Molecule: WQCLLS (OTHER INFORMATION: Description of Artificial Sequence:IL-16 antagonist peptide) [aa 344-349 of mouse CD4 D4]
- inhibition of IL-16 (splenocyte migration) (murine rIL-16 [1]; peptide 10^-7 M, rIL-16 10^-9 M): inhibited IL-16

B1: rIL-16: recombinant murine IL-16, 119 C-terminal residues, produced in Escherichia coli (protein)
chain: DSAASASAASDISVESKEATVCTVTLEKTSAGLGFSLEGGKGSLHGDKPLTINRIFKGTEQGEMVQPGDEILQLAGTAVQGLTRFEAWNVIKALPDGPVTIVIRRTSLQCKQTTASADS
- % IL-2R+ CELLS (rIL-16; rIL-16 10^-9 M alone, no stimulation 24): 36%
- increase of basal IL-2R expression (rIL-16; rIL-16 alone, murine splenocytes): 50%

B2: NLTCEVWGPTSPKLMLSLKLENKEAKVSKREKAVWVLNPEAGMWQCLLSDSGQVLLESNIKVLPTWSTPVQPM (peptide)
chain: NLTCEVWGPTSPKLMLSLKLENKEAKVSKREKAVWVLNPEAGMWQCLLSDSGQVLLESNIKVLPTWSTPVQPM
modifications: OTHER INFORMATION: Description of Artificial Sequence:IL-16 antagonist peptide
notes: aa 302-374 of human CD4 D4
- inhibition of IL-16-stimulated T-lymphocyte migration (murine rIL-16 [2]): IL-16-inhibitory activity
